{"source": "patent US20190169306A1", "about": "(UNIVERSITY OF SOUTHAMPTON, published 2019)", "biological_target": "T1, human CD27 (human, UniProt P26842 20-260)", "T1 sequence (looked up)": "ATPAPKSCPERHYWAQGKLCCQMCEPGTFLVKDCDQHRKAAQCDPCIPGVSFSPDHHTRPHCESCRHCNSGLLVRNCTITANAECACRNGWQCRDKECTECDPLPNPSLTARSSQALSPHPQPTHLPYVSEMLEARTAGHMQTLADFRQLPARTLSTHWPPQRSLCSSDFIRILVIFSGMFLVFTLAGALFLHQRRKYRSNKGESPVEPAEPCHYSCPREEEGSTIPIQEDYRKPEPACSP", "test": "cell-based or functional assay"}
{"binder": "varlilumab (anti-human CD27 mAb) (antibody, V domains shown) VH: QVQLVESGGGVVQPGRSLRLSCAASGFTFSSYDMHWVRQAPGKGLEWVAVIWYDGSNKYYADSVKGRFTISRDNSKNTLYLQMNSLRAEDTAVYYCARGSGNWGFFDYWGQGTLVTVSS VL: DIQMTQSPSSLSASVGDRVTITCRASQGISRWLAWYQQKPEKAPKSLIYAASSLQSGVPSRFSGSGSGTDFTLTISSLQPEDFATYYCQQYNTYPRTFGQGTKVEIK", "values": [{"measurement": "level of CD14 on monocytes in human PBMC cultures after 48 hours (flow cytometry)", "value": 2, "unit": "fold"}, {"measurement": "monocyte number in human PBMC cultures after 48 hours with 5 µg/mL mAb (flow cytometry)", "value": 3, "unit": "fold"}]}
